Source: patent US11723946B2, “Methods for regulating transcription of multiple genes and expression of multiple targets” (CHINA MEDICAL UNIVERSITY, priority 2014, dated 2023)
Like-named read-outs stand apart in the source and are kept apart here.

Key:
NF-κB = assay: Whole animal bioluminescent imaging, LPS-induced NF-κB/luc transgenic mice; format: in vivo
Excerpt: Mice: The NF-κB/luc transgenic mice bearing the luciferase transgene driven by two copies of the NF-kappaB regulatory elements were mated with wild-type FVB mice to generate the hybrid NF-κB/luc transgenic offspring for the experiments. Whole animal bioluminescent imaging: 15 mice with age of 6˜8 weeks were randomly divided into three groups. The group 1 was the blank group; the group 2 was control group; and the group 3 was experimental group. The mice of the group 2 and the group 3 were administration with 100 ul of […] lipopolysaccharide (LSP) solution to induce the inflammation in the mice by intraperitoneal injection (IP injection). As the blank control, the mice of group 1 were administered with 100 μl of PBS by IP injection. After the LPS-injection for 5 minutes, the mice of the group 3 were further injected with 20 μl solution that contains 0.5 mg/Kg of the present polypeptide by IP injection. In contrast, the mice of the group 2 and the […] were injected with 20 μul of water. […] For in vivo imaging mice were anesthetized with isoflurane and injected intraperitoneally with 150 mg/kg luciferin. After 10 minutes, the mice were placed face up and imaged for 1 min with the camera set at the highest sensitivity by IVIS Imaging System-200 (Series Xenogen Hopkinton, Mass.). The photons emitted from the tissues were quantified by Living Images software (Xenogen, Hopkinton, Mass.) and were shown in FIG. 4A. In the FIG. 4A, the Y-axis shown the signal strength (photons/sec) that stands for total photons diffused from the mice.

[1] = Fat accumulation in genetic deficient mice with massive abdominal fat; format: in vivo
Method: The mice were divided into control group and experimental group. […] In addition, the mice in the control group were peritoneally injections with 100 ul of PBS.
During the treatment period, the body weight and dietary intake of the mice were recorded at the regular time points. After the treatment, the gross views of whole animals were recorded by photographing. In the following, the fat pads of the mice were collected for the measurement of fat pad weight. The histological examination was performed to determine the number and size of the adipocytes in the mice of the both groups. Furthermore, the percentage of body fat was calculated according the formulation: (fat weight/body weight)×100%, and shown in table 4.

[2] = test system: Liver (Fatty liver genes); conditions: Down-regulated, 2.5 mmol/kg daily, 7 days
Method: (§1) The wild-type FVB mice were divided into the control group and the experimental group, wherein the mice in the experimental group were daily administered with 20 μl peptide-containing solution that contains 2.5 mmol/kg of the present peptide for 7 days. Moreover, the mice in the control group were daily administrated with 20 μl PBS solution for 7 days.
(§2) After the daily administration, the tissues of column, muscle, fat pad, liver and kidney were collected for analyzing the expression of multiple targets by system biology analysis. Herein, the altered expressions of the targets in the genome were determined by using DNA microarray which is a well-established tool for systematic biology analysis. Furthermore, the results of the DNA microarray were further categorized and analyzed by bioinformatics analysis to determine the effect and affected signaling pathways of the present polypeptide. Therefore, it can determine the downstream targets of the present polypeptide comprising the amino acid sequence of SEQ ID No. 1 by the mechanism investigation through microarray analysis and gene expression profile. The detail steps including:
(§3) (1) RNA preparation: The total RNA was extracted from the tissue by using RNeasy Mini Kit (Qiagen, Valencia, Calif., USA). The amount of the extracted total RNA was measured by Beckman DU800 spectrophotometer (Beckman Coulter, Fullerton, Calif., USA). In the next step, the quality of the RNA sample with A260/A280 ratio more than 1.8 was further evaluated by Agilent 2100 bioanalyzer (Agilent Technologies, Santa Clara, Calif., USA). When with the RNA integrity number of the sample is more than 8.0, it would be analyzed by the following microarray analysis.
(§4) (2) DNA microarray analysis: The procedure of DNA microarray analysis was conducted according to the reference (Cheng, 2007). Briefly, 5 μg of total RNA was amplified by in vitro transcription using MessageAmp™ aRNA kit (Ambion). In the following, the fluorescence dye, Cy5, was chemically labeled on the amplified RNA (aRNA). After the labeling, the fluorescence labeled aRNA was hybridized with Whole Genome OneArray™ in hybridization buffer (Phalanx Biotech Group, Taiwan) on cover slide. Following the hybridization reaction at 50° C. over-night, the non-specific binding on the chip was washed by three washing steps. The washed chip was dried by centrifugation and was scanned by Axon 4000 scanner (Molecular Devices, Sunnyvale, Calif., USA) to measure the fluorescence signals. The fluorescence intensity of Cy5 on each spots was further analyzed by genepix 4.1 (Molecular Devices). First, the signals of each spot were adjusted by deducting the intensity of background. In the next step, the spots including the probes of internal controls or the spots with the signal-to-noise ratios less than […] would be removed. The qualified spots were normalized by limma package which is belonged to R console (Smyth, 2005).
(§5) (3). Analysis of the functional mechanism and affected signaling pathways by using bioinformatics software: The altered downstream targets, functional mechanisms, affected signaling pathways and the disease relevance were investigated by using the bioinformatics software such as Medical Subject Headings (MeSH, http://www.nlm.nih.gov/mesh/meshhome.html) and BiblioSphere Pathway Edition.

[3] = test system: Column (IL-1β and TNF signaling pathway genes); conditions: Down-regulated, 2.5 mmol/kg daily, 7 days
Method: as §1, §2, §3, §4, §5

[4] = test system: Kidney (Diabetes; Nephrosis genes); conditions: Down-regulated, 2.5 mmol/kg daily, 7 days
Method: as §1, §2, §3, §4, §5

[5] = experimental group vs control group, in words

B1: present polypeptide: polypeptide comprising the amino acid sequence of SEQ ID No. 1; made by peptide synthesis, recombinant expression or extraction from Momordica charantia (peptide, listed as Artificial synthsis)
chain: SRCQGKSSWPQLVGSTGAAAKAWIERENPRVRAVIIKVGSGATKDFRCDRVRVWVTERGIVARPPTIG
NF-κB; group 3 (LPS + 0.5 mg/Kg polypeptide IP)
  suppression of luminescent intensity: about 38%
NF-κB; group 3: LPS + 0.5 mg/Kg polypeptide IP, 4 hours after injection
  average of luciferin value: 19.82×10^7 photons/sec
[1]; Experimental mice, 2.5 nmol/kg peritoneal twice a week, 4 weeks, control 2.53 ± 0.19
  Fat weight: 1.90 ± 0.41 g
[1]; Experimental mice, 2.5 nmol/kg peritoneal twice a week, 4 weeks, control 71.95 ± 6.25
  Body weight at end point: 72.54 ± 7.24 g
[1]; Experimental mice, (fat weight/body weight)×100%, control 3.68 ± 0.16
  Body fat: 2.74 ± 0.21%
[1]; [5]
  fat weight compared with control group: obviously decreased
  percentage of body fat compared with control group: obviously decreased
[2]
  Fold, Aldh2: 2.5 folds
  Fold, Ctla4: 1.56 folds
  Fold, Cyp17a1: 1.52 folds
  Fold, Mmp2: 2.11 folds
  Fold, Mttp: 3.53 folds
  Fold, Sod2: 1.71 folds
[3]; IL-1β signaling pathway
  Fold, Ccl2: 1.71 folds
  Fold, Cdh2: 1.73 folds
  Fold, Icam1: 2.27 folds
  Fold, Pecam1: 1.99 folds
  Fold, Tnfrsf11b: 2.74 folds
[3]; TNF signaling pathway
  Fold, ADIPOQ: 1.78 folds
  Fold, Bcl3: 1.72 folds
  Fold, CD40: 1.79 folds
  Fold, Casp3: 1.71 folds
  Fold, Ikbke: 1.95 folds
  Fold, Irs1: 1.73 folds
  Fold, Ltf: 1.99 folds
  Fold, Mapk3: 2.32 folds
  Fold, Mapk9: 1.53 folds
  Fold, Rxra: 1.89 folds
  Fold, Socs1: 2.46 folds
  Fold, Tnfrsf11b: 2.74 folds
[4]
  Fold, Apoc3: 2.5 folds
  Fold, Ctla4: 1.65 folds
  Fold, Fabp2: 1.62 folds
  Fold, Fgb: 1.91 folds
  Fold, Hp: 2.35 folds
